Results published in patent US11618906B2, “Hydroxylation techniques” (HYPHA DISCOVERY LTD., priority 2018, dated 2023).
Substitutions are numbered along the chain they refer to. Numbers in names are those of the source.

B1: aluC09M11: cytochrome P450 aluC09 mutant T291D; amino acid sequence SEQ ID NO: 8 (protein, listed as Amycolatopsis lurida)
chain: MTDVEETTATLPLARKCPFSPPPEYERLRRESPVSRVGLPSGQTAWALTRLEDIREMLSSPHFSSDRQSPSFPLMVARQIRREDKPFRPSLIAMDPPEHSRARRDVVGEFTVKRMKALQPRIQQIVDEHLDALLAGPKPADLVQALSLPVPSLVICELLGVPYSDHEFFQSCSSRMLSREVTAEERMTAFEQLENYLDELVTKKEANATEDDLLGRQILKQRETGEADHGELVGLAFLLLIAGHETTANMISLGTVTLLENPDQLAKIKADPGKTLAAIEELLRVFTIAEDATSRFATADVEIGGTLIRAGEGVVGLSNAGNHDPDGFENPDTFDIERGARHHVAFGFGVHQCLGQNLARLELQIVFDTLFRRVPGLRIAVPVDELPFKHDSTIYGLHALPVTW
B2: aluC09M19: cytochrome P450 aluC09 mutant T291A; amino acid sequence SEQ ID NO: 24 (protein, listed as Amycolatopsis lurida)
chain: B1 chain with D291A
B3: aluC09M20: cytochrome P450 aluC09 mutant T291V; amino acid sequence SEQ ID NO: 28 (protein, listed as Amycolatopsis lurida)
chain: B1 chain with D291V

What was measured:
Type in all cases: biochemical
[1] = Hydroxylation of aceclofenac catalysed by cytochrome P450 aluC09 and mutants; conditions: for Aceclofenac (Substrate) (1.80 mins) / Dihydroxy-Aceclofenac (1.42 mins) / Hydroxy-Aceclofenac (1) (1.64 min) / Hydroxy-Aceclofenac (2) (1.60 min): % by UV peak area at 275 nm, 0.125 mg/ml substrate, 27° C., 16-20 hours; for Hydroxylated Ratio 2:1: aceclofenac, ratio of UV peak areas at 275 nm
Procedure: (§1) Lyophilised material of mutants of CYP450aluC09, ferredoxinaluF03 and ferredoxin reductaseSCF15A was made as described in examples 3 and 4 and suspended in water (0.5 mL per vial) and biocatalysis was performed at 27° C. in the following conditions: 50 mM potassium phosphate pH 7.4, 5 mM MgCl2, 0.125 mg/ml substrate compound such as diclofenac (Sigma-Aldrich, UK), Aceclofenac (Tokyo Chemical Industry UK Ltd, UK), Indomethacin (Sigma-Aldrich, UK), Flufenamic acid (Sigma-Aldrich, UK), Napropamide (Sigma-Aldrich, UK), celecoxib (LC Laboratories, USA), valsartan (Tokyo Chemical Industry UK Ltd, UK), ruxolitinib (LC Laboratories, USA), 4-pyrrolidylacetophenone (Sigma-Aldrich, UK), tofacitinib (LC Laboratories, USA), bosentan (CarboSynth Ltd, UK), buparvaquone (MedChemtronica, Sweden), BIRB796 (Stratech Scientific Limited, UK), epothilone B (LC Laboratories, USA), ritonavir (Tokyo Chemical Industry UK Ltd, UK) or tivantinib (MedChemtronica, Sweden), P450AluC09 (concentration as in Table 8), 5 mM G6P, 1 mM NADP, 2 UN/ml G6PDH in a final volume of 100 μL. After 16-20 hours at 200 rpm (5 cm orbital shaker, Kuhner AG, Switzerland), reactions were extracted with an equal volume of acetonitrile, centrifuged to remove precipitated proteins and conversion assessed by UPLC-MS analysis.
(§2) UPLC data was obtained as follows:
(§3) Column: Acquity UPLC BEH Shield RP18 1.7 μm 2.1 mm i.d. 50 mm length
(§4) Solvents: H2O, B: Acetonitrile, both with 0.1% Formic acid
(§5) Detector: Waters Acquity UPLC PDA (UV-Vis detection) and Waters Acquity UPLC QDA (MS)
Chromatograms are provided in FIGS. 5a-c; aceclofenac elutes at 1.80 minutes, hydroxy-aceclofenac acid 1 elutes at 1.64 minutes, hydroxy-aceclofenac acid 2 elutes at 1.60 minutes and dihydroxy-aceclofenac elutes at 1.42 minutes.

[2] = Metabolism of tofacitinib by P450 aluC09 and mutants; conditions: percent of substrate being converted; 0.125 mg/ml, 27° C., 16-20 hours; [CYP] per enzyme as in Table 8
Procedure: as §1
(§6) However, of particular note when considering P450 concentration are the results for mutants M12, M20 and M34, as well as the deleterious impact on the range of substrate utility in mutants M39 and M40.

[3] = Hydroxylation of diclofenac catalysed by cytochrome P450 aluC09 and mutants (UPLC-PDA-MS); conditions: for 4′,5-dihydroxy-diclofenac 1.38 mins / 4′-hydroxy-diclofenac (1) 1.62 mins / 5-hydroxy-diclofenac (2) 1.58 mins / Diclofenac (Substrate) 1.81 mins: % by UV peak area at 275 nm, 0.125 mg/ml substrate, 27° C., 16-20 hours; for Hydroxylated Ratio hydroxy 1:hydroxy 2: diclofenac, ratio of UV peak areas at 275nm
Procedure: as §1, §2, §3, §4, §5
Illustrative results for the hydroxylation of diclofenac by CYP450aluC09 and selected T291x mutants are summarised below in Table 3 with representative chromatograms resented in FIG. 3a-c; retention times: diclofenac 1.85-1.88 minutes, 5-hydroxydiclofenac 1.60-1.63 minutes, 4′-hydroxydiclofenac 1.65-1.68 minutes, 4′,5-dihydroxydiclofenac 1.40-1.42 minutes. The chromatographic retention times and mass spectra coincided with those of authentic samples.

[4] = Metabolism of epothilone B by P450 aluC09 and mutants; conditions: percent of substrate being converted; 0.125 mg/ml, 27° C., 16-20 hours; [CYP] per enzyme as in Table 8
Procedure: as §1, §6

[5] = O-demethylation of indomethacin catalysed by cytochrome P450 aluC09 and mutants; conditions: % by UV peak area at 275 nm; 0.125 mg/ml substrate, 27° C., 16-20 hours
Procedure: as §1, §2, §3, §4, §5

[6] = Metabolism of 4-pyrrolidylacetophenone by P450 aluC09 and mutants; conditions: percent of substrate being converted; 0.125 mg/ml, 27° C., 16-20 hours; [CYP] per enzyme as in Table 8
Procedure: as §1, §6

[7] = Hydroxylation of flufenamic acid catalysed by cytochrome P450 aluC09 and mutants; conditions: for Flufenamic Acid (Substrate) 1.93 mins / Hydroxy-Flufenamic Acid (1) 1.69 mins / Hydroxy-Flufenamic Acid (2) 1.65 mins: % by UV peak area at 275 nm, 0.125 mg/ml substrate, 27° C., 16-20 hours; for Hydroxylated Ratio 1:2: flufenamic acid, ratio of UV peak areas at 275 nm
Procedure: as §1, §2, §3, §4, §5
Flufenamic acid elutes at 1.93 minutes, hydroxy-flufenamic acid 1 elutes at 1.68 minutes and hydroxy-flufenamic acid 2 elutes at 1.65 minutes.

[8] = Hydroxylation / de-N-ethylation of napropamide catalysed by cytochrome P450 aluC09 and mutants; conditions: for Desethyl Napropamide (1.62 min) / Desethyl-hydroxy-Napropamide (1.41 min) / Hydroxy-Napropamide (1) (1.53 min) / Hydroxy-Napropamide (2), (1.52 min) / M-2Da (unidentified) (1.89 min) / Napropamide (substrate): % by UV peak area at 275 nm, 0.125 mg/ml substrate, 27° C., 16-20 hours; for Hydroxylated Ratio 2:1: napropamide, ratio of UV peak areas
Procedure: as §1, §2, §3, §4, §5
Napropamide elutes at 1.76 minutes, unidentified metabolite (−2 Da) elutes at 1.90 minutes, desethyl-napropamide elutes at 1.62 minutes, hydroxy-napropamide 1 elutes at 1.53 minutes and hydroxy-napropamide 2 elutes at 1.52 minutes and the desethyl-hydroxy-napropamide product elutes at 1.41 minutes.

[9] = Metabolism of valsartan by P450 aluC09 and mutants; conditions: percent of substrate being converted; 0.125 mg/ml, 27° C., 16-20 hours; [CYP] per enzyme as in Table 8
Procedure: as §1, §6

[10] = Metabolism of ritonavir by P450 aluC09 and mutants; conditions: percent of substrate being converted; 0.125 mg/ml, 27° C., 16-20 hours; [CYP] per enzyme as in Table 8
Procedure: as §1, §6

[11] = Metabolism of ruxolitinib by P450 aluC09 and mutants; conditions: percent of substrate being converted; 0.125 mg/ml, 27° C., 16-20 hours; [CYP] per enzyme as in Table 8
Procedure: as §1, §6

[12] = Metabolism of tivantinib by P450 aluC09 and mutants; conditions: percent of substrate being converted; 0.125 mg/ml, 27° C., 16-20 hours; [CYP] per enzyme as in Table 8
Procedure: as §1, §6

[13] = Metabolism of celecoxib by P450 aluC09 and mutants; conditions: percent of substrate being converted; 0.125 mg/ml, 27° C., 16-20 hours; [CYP] per enzyme as in Table 8
Procedure: as §1, §6

[14] = Metabolism of bosentan by P450 aluC09 and mutants; conditions: percent of substrate being converted; 0.125 mg/ml, 27° C., 16-20 hours; [CYP] per enzyme as in Table 8
Procedure: as §1, §6

[15] = Metabolism of buparvaquone by P450 aluC09 and mutants; conditions: percent of substrate being converted; 0.125 mg/ml, 27° C., 16-20 hours; [CYP] per enzyme as in Table 8
Procedure: as §1, §6

[16] = Metabolism of BIRB796 by P450 aluC09 and mutants; conditions: percent of substrate being converted; 0.125 mg/ml, 27° C., 16-20 hours; [CYP] per enzyme as in Table 8
Procedure: as §1, §6

| Molecule | Aceclofenac (Substrate) (1.80 mins) [1] | Dihydroxy-Aceclofenac (1.42 mins) [1] | Hydroxy-Aceclofenac (1) (1.64 min) [1] | Hydroxy-Aceclofenac (2) (1.60 min) [1] | Hydroxylated Ratio 2:1 [1] | % conversions (avg) Tofacitinib [2] | 4′,5-dihydroxy-diclofenac 1.38 mins [3] | 4′-hydroxy-diclofenac (1) 1.62 mins [3] | 5-hydroxy-diclofenac (2) 1.58 mins [3] | Diclofenac (Substrate) 1.81 mins [3] | Hydroxylated Ratio hydroxy 1:hydroxy 2 [3] | % conversions (avg) Epothilone B [4] | Indomethacin (1.74 mins) [5] | O-demethyl-Indomethacin (1.52 mins) [5] | Flufenamic Acid (Substrate) 1.93 mins [7] | Hydroxy-Flufenamic Acid (1) 1.69 mins [7] | Hydroxy-Flufenamic Acid (2) 1.65 mins [7] | Hydroxylated Ratio 1:2 [7] | Desethyl Napropamide (1.62 min) [8] | Desethyl-hydroxy-Napropamide (1.41 min) [8] | also measured |
| --- | --- | --- | --- | --- | --- | --- | --- | --- | --- | --- | --- | --- | --- | --- | --- | --- | --- | --- | --- | --- | --- |
| B1 | 17.5% | 35.2% | 6.3% | 41.0% | 6.5 | 1.4% | 2.3% | 25.3% | 25.1% | 48.3% | 1.0 | 8.5% | 92.6% | 7.4% | 94.7% | 3.4% | 1.9% | 1.8 | 36.6% | 8.7% | % conversions (avg) 4-pyrrolidylacetophenone [6]: 21.4%; Hydroxy-Napropamide (1) (1.53 min) [8]: 1.5%; Hydroxy-Napropamide (2), (1.52 min) [8]: 3.1%; M-2Da (unidentified) (1.89 min) [8]: 6.7%; Napropamide (substrate) [8]: 47.6%; Hydroxylated Ratio 2:1 [8]: 2.1; % conversions (avg) Valsartan [9]: 26%; % conversions (avg) Ritonavir [10]: 57.3%; % conversions (avg) Ruxolitinib [11]: 35.7%; % conversions (avg) Tivantinib [12]: 34.2%; % conversions (avg) Celecoxib [13]: 3.2%; % conversions (avg) Bosentan [14]: 100%; % conversions (avg) Buparvaquone [15]: 15.8% |
| B2 | 6.7% | 48.3% | 6.5% | 38.5% | 5.9 | 0% | 2.4% | 50.0% | 14.2% | 34.8% | 3.5 | 4.5% | 93.5% | 6.5% | 90.4% | 5.8% | 3.8% | 1.5 | 50.1% | 4.9% | % conversions (avg) BIRB796 [16]: 16.6%; % conversions (avg) 4-pyrrolidylacetophenone [6]: 0.7%; Hydroxy-Napropamide (1) (1.53 min) [8]: 2.3%; Hydroxy-Napropamide (2), (1.52 min) [8]: 3.9%; M-2Da (unidentified) (1.89 min) [8]: 6.1%; Napropamide (substrate) [8]: 34.3%; Hydroxylated Ratio 2:1 [8]: 1.7; % conversions (avg) Ritonavir [10]: 65.4%; % conversions (avg) Ruxolitinib [11]: 50.8%; % conversions (avg) Tivantinib [12]: 26.1%; % conversions (avg) Celecoxib [13]: 4.5%; % conversions (avg) Buparvaquone [15]: 17.1% |
| B3 | 4.2% | 35.1% | 33.1% | 27.6% | 0.8 | 4.5% | 3.1% | 50.1% | 13.7% | 34.8% | 3.7 | 21.1% | 89.2% | 10.8% | 93.6% | 4.4% | 2.0% | 2.2 | 56.2% | 7.6% | % conversions (avg) BIRB796 [16]: 22.4%; Hydroxy-Napropamide (1) (1.53 min) [8]: 2.1%; Hydroxy-Napropamide (2), (1.52 min) [8]: 6.1%; M-2Da (unidentified) (1.89 min) [8]: 4.7%; Napropamide (substrate) [8]: 25.3%; Hydroxylated Ratio 2:1 [8]: 2.9; % conversions (avg) Valsartan [9]: 13.1%; % conversions (avg) Ritonavir [10]: 100%; % conversions (avg) Ruxolitinib [11]: 70.7%; % conversions (avg) Tivantinib [12]: 22.2%; % conversions (avg) Celecoxib [13]: 2.2%; % conversions (avg) Buparvaquone [15]: 15.4% |
